These results are taken from the supplement of paper PMC7877785.

± gives the uncertainty stated by the source.

This series can be described thus: self-splicing fitness, log relative to wild type (ln ratio); higher = more splicing; Tetrahymena group I intron in knt gene, E. coli kanamycin selection, DiMSum; sequences stand for … in CUCUCU…GGAGGGAAAAGUUAUCAGGCAUGCACCUGGUAGCUAGUCUUUAAACCAAUAGAUUGCAUCGGUUUAAAAGGCAAGACCGUCAAAUUGCGGGAAAGGGGUCAACAGCCGUUCAGUACCAAGUCUCAGGGGAAACUUUGAGAUGGCCUUGCAAAGGGUAUGGUAAUAAGCUGACGGACAUGGUCCUAACCACGCAGCCAAGUCCUAAGUCAACAGAUCUUCUGUUGAUAUGGAUGCAGUUCACAGACUAAAUGUCGGUCGGGGAAGAUGUAUUCUUCUCAUAAGAUAUAGUCGGACCUCUCCUUAAUGGGAGCUAGCGGAUGAAGUGAUGCAACACUGGAGCCGCUGGGAACUAAUUUGUAUGCGAAAGUAUAUUGAUUAGUUUUGGAGUACUCGUGGUCG
In outline: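 Colonies from six replicate transformations of E. coli BL21(DE3) were pooled and amplicon-sequenced on an Illumina HiSeq 2500. The library placed an intron with all eight P1ex-region nucleotides randomised inside the knt kanamycin-resistance gene on pET-22b(+), and cells grew overnight at 37°C or 30°C on LB agar with or without 25 μg/mL kanamycin (plus 100 μg/mL carbenicillin, 50 μM IPTG, 0.2% rhamnose). Fitness is the DiMSum error-weighted combination of wild-type-normalised replicate fold changes, kanamycin versus none.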

For GACAAGCAAUAUUACGCCGA, the “self-splicing fitness (ln)” value (30 °C) is -1.19 ± 0.12 and the “self-splicing fitness (ln)” value (37 °C) was -0.179 ± 0.14.
For the sequence UGUGAGCAAUAUUACGACAG, the “self-splicing fitness (ln)” value by setting is: (30 °C) -1.7 ± 0.1; (37 °C) -1.59 ± 0.12.
On to UCGUAGCAAUAUUACGGAAU, for which the “self-splicing fitness (ln)” value (37 °C) is -1.55 ± 0.27.
For the sequence ACCAAGCAAUAUUACGGGUU, the “self-splicing fitness (ln)” value was -4.06 ± 0.14 (30 °C) and -3.14 ± 0.17 (37 °C).
The like results for UGUCAGCAAUAUUACGUCAA were, in that order, -0.787 ± 0.077 and -0.0175 ± 0.076.
Regarding CAAGAGCAAUAUUACGAAUU, the “self-splicing fitness (ln)” value was -3.25 ± 0.17 (30 °C) and -2.64 ± 0.32 (37 °C).
As for AUGCAGCAAUAUUACGGAUG, the “self-splicing fitness (ln)” value was -4.6 ± 0.29 (30 °C) and -1.08 ± 0.13 (37 °C).
GUAUAGCAAUAUUACGCGUG: the “self-splicing fitness (ln)” value is, setting by setting: (30 °C) -2.13 ± 0.18; (37 °C) -0.201 ± 0.14.
Regarding AGUUAGCAAUAUUACGGAAU, the “self-splicing fitness (ln)” value is -3.73 ± 0.46 (30 °C) and -2 ± 0.43 (37 °C).
The like results for UCUGAGCAAUAUUACGCGGU were, in that order, -2.71 ± 0.28 and -2.5 ± 0.28.
UAAGAGCAAUAUUACGGCCG: the “self-splicing fitness (ln)” value runs as follows: (30 °C) -1.79 ± 0.14; (37 °C) -0.743 ± 0.2.
As to GAUAAGCAAUAUUACGUCAA, the “self-splicing fitness (ln)” value reads like this: (30 °C) -1.66 ± 0.16; (37 °C) -1.39 ± 0.14.
Taken in the same sequence, the figures for AUGUAGCAAUAUUACGACGA were -0.828 ± 0.11 and 0.039 ± 0.14.
For the sequence UGCGAGCAAUAUUACGUAUA, the “self-splicing fitness (ln)” value is -2.89 ± 0.25 (30 °C) and -0.733 ± 0.22 (37 °C).
As to GAUCAGCAAUAUUACGGCAG, the “self-splicing fitness (ln)” value runs as follows: (30 °C) -3.4 ± 0.33; (37 °C) -2.34 ± 0.27.
For ACAGAGCAAUAUUACGCGAG, the “self-splicing fitness (ln)” value was -2.31 ± 0.14 (30 °C) and -2.43 ± 0.16 (37 °C).
In the case of UGCAAGCAAUAUUACGGCUU, for the setting “37 °C”, the “self-splicing fitness (ln)” value was -1.72 ± 0.28.
For ACAAAGCAAUAUUACGCUUU, the “self-splicing fitness (ln)” value was -3.64 ± 0.24 (30 °C) and -2.16 ± 0.17 (37 °C).
The like results for CUUAAGCAAUAUUACGGUUC were, in that order, -4.11 ± 0.19 and -3.1 ± 0.26.
Take AGAAAGCAAUAUUACGUGUA: the “self-splicing fitness (ln)” value by setting is: (30 °C) -2.13 ± 0.1; (37 °C) -0.737 ± 0.094.
For the sequence GGAUAGCAAUAUUACGAUAC, the “self-splicing fitness (ln)” value is, setting by setting: (30 °C) -1.23 ± 0.13; (37 °C) -1.8 ± 0.16.
The like results for CGUUAGCAAUAUUACGUUGA were, in that order, -3.1 ± 0.22 and -2.25 ± 0.17.
On to UUUAAGCAAUAUUACGGAUA, for which the “self-splicing fitness (ln)” value is -1.12 ± 0.18 (30 °C) and -1.13 ± 0.18 (37 °C).
Take AUACAGCAAUAUUACGAUUU: the “self-splicing fitness (ln)” value is -0.0463 ± 0.053 (30 °C) and 0.498 ± 0.073 (37 °C).
As to CCGCAGCAAUAUUACGUAUC, the “self-splicing fitness (ln)” value reads like this: (30 °C) -4.05 ± 0.28; (37 °C) -1.91 ± 0.2.
For ACGCAGCAAUAUUACGAGGA, the “self-splicing fitness (ln)” value was -2.8 ± 0.16 (30 °C) and -2.26 ± 0.17 (37 °C).
As to CCCUAGCAAUAUUACGGUGA, the “self-splicing fitness (ln)” value is, setting by setting: (30 °C) -2.53 ± 0.11; (37 °C) -1.23 ± 0.094.
Regarding AGAGAGCAAUAUUACGAUUU, the “self-splicing fitness (ln)” value is, setting by setting: (30 °C) -1.52 ± 0.11; (37 °C) -0.748 ± 0.11.
For the sequence AGUGAGCAAUAUUACGUAUC, the “self-splicing fitness (ln)” value (30 °C) is -3.05 ± 0.34.
As for CGGAAGCAAUAUUACGAUUG, the “self-splicing fitness (ln)” value (30 °C) was -0.86 ± 0.073 and the “self-splicing fitness (ln)” value (37 °C) was -0.25 ± 0.095.
Take GAGGAGCAAUAUUACGGUUC: the “self-splicing fitness (ln)” value (37 °C) is -3.2 ± 0.35.
Regarding CUGGAGCAAUAUUACGGUGA, the “self-splicing fitness (ln)” value reads like this: (30 °C) -2.75 ± 0.24; (37 °C) -3.22 ± 0.35.
The like results for UGGUAGCAAUAUUACGACAU were, in that order, -1.39 ± 0.015 and -0.583 ± 0.034.
The like results for CCUGAGCAAUAUUACGGAGA were, in that order, -2.39 ± 0.25 and -3.09 ± 0.35.
As to CGCUAGCAAUAUUACGUGAG, the “self-splicing fitness (ln)” value was -3.88 ± 0.33 (30 °C) and -1.64 ± 0.14 (37 °C).
As to AGCCAGCAAUAUUACGAGUG, the “self-splicing fitness (ln)” value runs as follows: (30 °C) -3.63 ± 0.2; (37 °C) -2.13 ± 0.14.
Regarding GCGUAGCAAUAUUACGUCUU, the “self-splicing fitness (ln)” value reads like this: (30 °C) -3.15 ± 0.098; (37 °C) -1.93 ± 0.1.
The like results for GGAAAGCAAUAUUACGGCGC were, in that order, -0.392 ± 0.16 and 0.131 ± 0.21.
